From publication doi:10.1101/2022.09.09.507385 (bioRxiv, 2022)
Positions count from the first letter of the chain named. Names may count otherwise.

Target: the molecule itself
Test: cryo-EM structure

B1: human Pannexin1 wild type (PANX1WT), full length (natural protein)
chain: MAIAQLATEYVFSDFLLKEPTEPKFKGLRLELAVDKMVTCIAVGLPLLLISLAFAQEISIGTQISCFSPSSFSWRQAAFVDSYCWAAVQQKNSLQSESGNLPLWLHKFFPYILLLFAILLYLPPLFWRFAAAPHICSDLKFIMEELDKVYNRAIKAAKSARDLDMRDGACSVPGVTENLGQSLWEVSESHFKYPIVEQYLKTKKNSNNLIIKYISCRLLTLIIILLACIYLGYYFSLSSLSDEFVCSIKSGILRNDSTVPDQFQCKLIAVGIFQLLSVINLVVYVLLAPVVVYTLFVPFRQKTDVLKVYEILPTFDVLHFKSEGYNDLSLYNLFLEENISEVKSYKCLKVLENIKSSGQGIDPMLLLTNLGMIKMDVVDGKTPMSAEMREEQGNQTAELQGMNIDSETKANNGEKNARQRLLDSSC
binding result: binds

B2: human Pannexin1 double mutant W74R/R75D (PANX1DM) (natural protein)
chain: B1 chain with W74R, R75D
binding result: binds

B3: human Pannexin1 congenital mutant R217H (PANX1_(R217H)) (natural protein)
chain: B1 chain with R217H
binding result: binds

B4: human Pannexin3 (PANX3), full length (natural protein)
chain: MSLAHTAAEYMLSDALLPDRRGPRLKGLRLELPLDRIVKFVAVGSPLLLMSLAFAQEFSSGSPISCFSPSNFSIRQAAYVDSSCWDSLLHHKQDGPGQDKMKSLWPHKALPYSLLALALLMYLPVLLWQYAAVPALSSDLLFIISELDKSYNRSIRLVQHMLKIRQKSSDPYVFWNELEKARKERYFEFPLLERYLACKQRSHSLVATYLLRNSLLLIFTSATYLYLGHFHLDVFFQEEFSCSIKTGLLSDETHVPNLITCRLTSLSIFQIVSLSSVAIYTILVPVIIYNLTRLCRWDKRLLSVYEMLPAFDLLSRKMLGCPINDLNVILLFLRANISELISFSWLSVLCVLKDTTTQKHNIDTVVDFMTLLAGLEPSKPKHLTNSACDEHP
modifications: N-acetylglucosamine (NAG) at N71; disulfide bonds C66-C261 and C84-C242
stoichiometry N: 7
